# Test results reported in the DeepSol protein solubility set.
# Test: soluble on expression in E. coli; label from the status in PepcDB or PDB records
row,Sequence,soluble on expression in E. coli
1,MAHHHHHHSLAYGNINQPFSLESLPDELIPENLYQIETDSSRVFQRHQCRRLAHLLLFQLLKIAGKSTALLSQIHRTESGRPYFLDERIDFNISHSGDWVAVILDIRNEEKSAVGIDIEFPKIRNFTALMEHIAPKEEIDWFHHQQDSLNAFYRCWCLREAVLKSQGFGIVKLSNVRHFPEQQKIFSDYCPQGQLWFTDELPIYLAAFVNHQEKLPHFYEWNRESLQIKELEKYVLYEVNEG,soluble
2,MAHSAAAVPLGALEQGCPIRVEHDRRRRQFTVRLNGCHDRAVLLYEYVGKRIVDLQHTEVPDAYSGRGIAKHLAKAALDFVVEEDLKAHLTCWYIQKYVKENPLPQYLERLQP,not soluble
3,MAIDLAEVTGAKAAQERKKEQPTIANGLDKNAFMKLFLEQLKNQDPTAPMETDKIITQTAQLTQVEMQEENKKTMQEVASAMKSNKETNESLKDFQGALKDTMENLNKGMDDSLKANNALREVTALNSVSMIGKIAETDVSGANFDGNNKLSFSLFFDEKIDASKGVPAIQILNENNELVKTIPLKDYNGQKGYINFEWDGTNEKGEKVPKGNYKIKAEYNLDSHSKQYLQTRIGRGEVESVIFDKGKPMLRMGEMVLPIDSAIEFYQPDQKPLEQKLSDQKPIDQKPLDQKPQTPPKETA,not soluble
4,MAIHNRAGQPAQQSDLINVAQLTAQYYVLKPEAGNAEHAVKFGTSGHRGSAGRHSFNEPHILAIAQAIAEERAKNGITGPCYVGKDTHALSEPAFISVLEVLAANGVDVIVQENNGFTPTPAVSNAILVHNKKGGPLADGIVITPSHNPPEDGGIKYNPPNGGPADTNVTKVVEDRANALLAGGLQGVKRISLDAAMASGHVKAVDLVQPFVEGLADIVDMAAIQKAGLTLGVDPLGGSGIEYWKRIAEHYKLNLTLVNDQVDQTFRFMHLDKDGAIRMDCSSECAMAGLLALRDKFDLAFANDPDYDRHGIVTPAGLMNPNHYLAVAINYLFQHRPLWGKDVAVGKTLVSSAMIDRVVNDLGRKLVEVPVGFKWFVDGLFDGSFGFGGEESAGASFLRFDGTPWSTDKDGIIMCLLAAEITAVTGKNPQEHYNELAARFGAPSYNRLQASATSAQKAALSKLSPEMVSASTLAGDPITARLTAAPGNGASIGGLKVMTDNGWFAARPSGTEDAYKIYCESFLGEEHRKQIEKEAVEIVSEVLKNA,soluble
5,MAIKSVLFLRSNPVAPDPRVAKEAQALADAGYKVGVVAWDRTGELPKVEETPFGLVERLPIKGSFRSGLANLLPLVRFNLALLWHLIKRRSTYDAIHACDFDTVLPALVAAKLLGKKVVYDVFDFYADMLRATPGWIKSIIKKVDLRLMGWVDAVILADESRVKQIQGARPKRLTFIYNSPPIEDPFPLPPAPPPLRIAYVGLLQKERGILQVIELLRRHPEWELDLGGFGGDEEEIRRAVADLPNVRYHGRVPYEKALELMSNAHLLFATYDPSIPNHRYSSANKLFEAMAIGRPIVVARDTGMDQLVQQYALGFVVEYGNLAALEDAFARVASWDLQRFEEFSQKAQEVYVTRFAWRIMKERLIALYRKLEE,soluble
6,MAIQFIVSNKYTAEVSKQLNDSQNWVLDSGIYYEDHNNHIVSSPINSATKPQNTREEWLWIPPHCQVVVCSTSSLKSFLGCKASEDLDRVFGDHPLWLDQLRPLSNLLENSLIDLLSRAPFEQSSKRNIQSMERGNPVMNWNVMQVEEEDTRGEQRVAASSSLSSSFDWNTFLRDRCGLSEEDVAYCFRKLSRFGRVSLSRLNEDSLLRMGINDPTVIAKLLIGITEEFS,not soluble
7,MAIRVIGTGFGRTGTDSMREALTILGFGPCHHMSEVMGNEDQKRLWRALAKGAAPDWNQLFAGYASCIDWPSAHYWRDLIEFYPKARVILTYRSPESWWASFEKTILAGISQSTDQESLGLALISRQVFDGRPHDRANAIAVYEANVRAVIATVPPSRLLVHNLGDGWKPLCLHLDVPVPDKPYPNRNTTKDFQSALAQN,soluble
8,MAITQKRPVYLQLVDRIKNEVATDVLSANDQLPSVRETALQEKINPNTVAKAYKELEAQKVIRTIPGKGTFITGNTASVKNSNQNRLLADLSQVIAELIKSGVKGERIKKIVNDILGGKNAEN,soluble
9,MAKAAKRFRTPSTTRVLYVRHAHAHGRQTWGGDDNKRPLDKKGRRQAEMLVPMLLPFKPTAIYSAVPDRCQATALPLADELGLDVSVNRLFGDDAWETDPEACKKRFTDVVAQGGVPMIVGQGDIIPEMIKWFSENGTLPIDEKIKAKKGSVWVLSFHDGVFTGADYLEHHHHHH,not soluble
10,MAKDPRYVGNLPKIGIRPTIDGRRKGVRESLEETTMNMAKAVAKLLEENVFYYNGQPVECVIADTCIGGVKEAAEAAEKFAREGVGVSITVTPCWCYGTETMDMDPHIPKAVWGFNGTERPGAVYLAAVLAGYNQKGLPAFGIYGKDVQDAGDTNIPEDVKEKLIRFAKAGLAVAMMKGKSYLSIGSVSMGIAGSVVQEDFFQNYLGMRNEYVDMSEFVRRIELGIYDKEEYERALKWVKENCKVGPDNNRDGFKRTEEQKEKDWEISVKMALIARDLMVGNKKLEEMGYGEEALGRNAIVAGFQGQRQWTDYFPNGDFMETILNSSFDWNGKRAPYIFATENDNLNGISMLFGYLLTNTAQIFADVRTYWSPEAVKRVTGYTLEGRAANGIIHLINSGAAALDGTGEQTKDGKPVIKPYYELTDEDIKKCLEATQFRPASTEYFRGGGYSTDFLTKGGMPVTISRLNIVKGLGPVLQIAEGYTVDLPEEVHDVLDKRTDPTWPTTWFVPNLTGEGAFKDVYSVMNNWGANHCSISYGHIGADLITLASILRIPVNMHNVPEEKIFRPDAWSMFGTKDLEGADYRACKKLGPIYK,soluble
11,MAKEVWRFIDSGYCPPAFNMALDEALLDWHSEGKIPPTIRFYGWNPPTLSIGYFQKVEKEIDLEAVKRHGLGFVRRPTGGRGVLHDKELTYSVIVSESHPAMPKTVTEAYRVISQGILEGFRYLGLDAYFAVPRTEEEKADLRSPRSAVCFDAPSWYELVVEGRKIAGSAQTRQKGVILQHGSILLDLDEDLLFSLFKYPNERVKERLQRDFKKKAVAINELTSRTVTIEEAKEAFYKGFEKGLNIVLEPYTLTAEERAYVEELARTKYESDEWNFKR,not soluble
12,MAKIGFVSLGCPKALVDSEQILSRLKALGYETSPSYEEAELVIVNTCGFINEAVEESLEAIGEALKENGKVVVTGCLGARPEKIRERHPQVLAVTGPGEVERVLEAVQEVLPAPRDPFLDLIPPQVKLTPRHYAYVKLSEGCDHRCSFCIIPKLRGRLRSRDAADVLAEAARLVATGTKELLLVAQDLSAYGVDLGHRESLWGDRPVRAELKDLLTHMAELGVWIRLHYVYPYPHVKDLLPLMAEGKVLPYLDVPLQHASPRILRLMRRPGGYESHLKTLKAWREVVPELALRSTFIVGFPGETEEDFQILLDFLEEAELDRVGVFAYSPVEGAEANRLPDPVPEEVKEERKARLLEVQARVSLRKNQRFVGKTLEVLVDELPEPGLAVGRTYRDAPGVDGVVYVETDGTVRVGERIPVRILRADTYDLHGVQAAAALEHHHHHH,soluble
13,MAKKLSSPKEYKEFIDKFDVFLFDCDGVLWSGSKPIPGVTDTMKLLRSLGKQIIFVSNNSTKSRETYMNKINEHGIAAKLEEIYPSAYSSATYVKKVLKLPADKKVFVLGEAGIEDELDRVGVAHIGGTDPSLRRALASEDVEKIGPDPSVGAVLCGMDMHVTYLKYCMAFQYLQDPNCAFLLTNQDSTFPTNGKFLPGSGAISYPLIFSTGRQPKILGKPYDEMMEAIIANVNFDRKKACFVGDRLNTDIQFAKNSNLGGSLLVLTGVSKEEEILEKDAPVVPDYYVESLAKLAETA,soluble
14,MAKKTLPAGVKSPPYIFSPIPFLGHAIAFGKSPIEFLENAYEKYGPVFSFTMVGKTFTYLLGSDAAALLFNSKNEDLNAEDVYSRLTTPVFGKGVAYDVPNPVFLEQKKMLKSGLNIAHFKQHVSIIEKETKEYFESWGESGEKNVFEALSELIILTASHCLHGKEIRSQLNEKVAQLYADLDGGFSHAAWLLPGWLPLPSFRRRDRAHREIKDIFYKAIQKRRQSQEKIDDILQTLLDATYKDGRPLTDDEVAGMLIGLLLAGQHTSSTTSAWMGFFLARDKTLQKKCYLEQKTVCGENLPPLTYDQLKDLNLLDRCIKETLRLRPPIMIMMRMARTPQTVAGYTIPPGHQVCVSPTVNQRLKDSWVERLDFNPDRYLQDNPASGEKFAYVPFGAGRHRCIGENFAYVQIKTIWSTMLRLYEFDLIDGYFPTVNYTTMIHTPENPVIRYKRRSTHHHHHH,soluble
15,MAKNDFKFISYKDKVKKELDATAERGMTKVLMIIKAAAKSGAPVETGQLRDRIDYQLKAVGGKVVGIVGSPEQYAIYVEFGTGEFAENGSGRKGGWFFEGPDGEWHFTRGQKPQKFLRNAFRQNKEKVIEILGKEYGATFKGG,not soluble
16,MAKPDQLELLFDVAPPADPASAAPPGAPPRKTPKARPAPPAPAAIATPCPDPLPPGARWREVHTEQQPIGFVLLRSRRRSIGFVVADDGLRVTAPNWVTLGQIDDAVREKARWILAKLRDWHARKEQLAMAHTRWQAGGELPYLGKRIVLGLGAERRQACLSGDADAPCDGDTLWLALPVDADQARIRDAAQAWLQQRAGAWFGARLAHFLQLTGLRIRRWRLSSAATRWGSCTSDGNIMLNWRLIHFAPAIIDYVIAHELAHLREMNHSQDFWTEVGHILPGFEDAKNVLRRHDPATLPQFLEHHHHHH,soluble
17,MAKPILYSYWRSSCAWRVRIALALKNIDYEYRPIDLFSEESKNNAEFVKHNPAKKVPTLVINGLSLTESLAIIEYLDEAYPDPPFLPKELDKRSYSRAIALHIVASIQPLQAINIHKMLNEKEPGYGDFWCNHFVNKGFLALEELLKKHSGKYCVGDQLTIADINLPSIIYNAKIYKVDMSKYPTITRINEILAEDFRFKLAHPDNQPDAPNKN,not soluble
18,MAKQSGGKPQIDEDFMKEIISQGLPVKKQETPLVTVETPDKPETVNKEEIKAEPKEEKAVKEPARRKKNTPGDYRETYFMRVDLTDRQPLYVSRTTHEKLMKIVTVIGGRKATVSSYVENILLRHFDQFQDEINELYESKFEKPF,soluble
19,MAKTLDSPGVLVVDFGGQYAHLIARRIRELGVYSEIVPATSLDALGEALPRAAGVVLSGGPGSVWGSRHDEAAAMVLQLGKPVLGICYGHQLLAKVLGGEVGRSPLPEFGPTEVEVLDYGILLNGLPSRFKVWMSHYDAVLRPPGEAKVLARTPGSPVAAMELWGRVFGVQWHPEVRHTQYGREVLDNWLSLVGAPRTWRPGDMVSELVESVKKEVGDALAVAAVSGGVDSTVAALIAKKAIGSRLYPVFIDHGLHPEGEVERVVKLLSRLGLEPVMVDAGEEFLAALEGVGDPEEKRRVVGRVYAEVLERAARDIGAEYLVQGTIYPDVIESGARPGADTIKTHHNVGGLPKDMRLKLVEPLRYFYKDEVRLLAEKLGVPRELIWKQPVPGPGLAVRVEGPITREKLRIVRRADAIVREEVEAAGLGGKLWQYFAVLTASMATGVRGDSRSYGYVVAVRAVESVDAMTAKPAELPWWLLERIARRITSEIPEVVRVVYDITSKPPSTIEWE,soluble
20,MAKVSVVMPVYNSEKYLKESIESILNQSYSDLEFIIINDGSTDNSFKIIKEYAKLDKRINVISRENKGIVYSLNEAIRLAKGEYIARMDADDISAPKRIEKQISFLKSHRDIDILGTQVKVVGNISNDIKEKNENKLNIEFDIYDDNREKILNYWYCLAHPSVMFRKDILRELKGYNDFKSEDLDLWLRAIESGFKIYKLKEELIYFRMHEESKTRVDNQNYEGLKDGIKIKLIDVFKREFKKDFKYIVWGASNGGKITKEVLDEFFEKSQCIAFVDKFKTGEFEKIRILHPKDINHIKFDYVFIATEPGKEEAMSSLKSMGLKCIKDFLSTVLEHHHHHH,not soluble
21,MALDQSLVGRSYPPTAPYEVGREKIREFAEAVGDANPAYTDAEAAKALGHPDVIAPPTFVFSITFKAAGQVIEDPQLGLDYSRVVHGDQKFSYARPVRAGDRLTVTSTIEAIKSMAGNDILDIRGEVHDEAGEHVVTAWTKLVARAAEEALEHHHHHH,soluble
